Substitutions are numbered along the chain they refer to. Each block holds one binder with its values, some of them ahead of it.
Target: human NRP1 protein (human, UniProt O14786 22-856)
Experiment: ELISA

Sequence of human NRP1 protein (O14786 22-856): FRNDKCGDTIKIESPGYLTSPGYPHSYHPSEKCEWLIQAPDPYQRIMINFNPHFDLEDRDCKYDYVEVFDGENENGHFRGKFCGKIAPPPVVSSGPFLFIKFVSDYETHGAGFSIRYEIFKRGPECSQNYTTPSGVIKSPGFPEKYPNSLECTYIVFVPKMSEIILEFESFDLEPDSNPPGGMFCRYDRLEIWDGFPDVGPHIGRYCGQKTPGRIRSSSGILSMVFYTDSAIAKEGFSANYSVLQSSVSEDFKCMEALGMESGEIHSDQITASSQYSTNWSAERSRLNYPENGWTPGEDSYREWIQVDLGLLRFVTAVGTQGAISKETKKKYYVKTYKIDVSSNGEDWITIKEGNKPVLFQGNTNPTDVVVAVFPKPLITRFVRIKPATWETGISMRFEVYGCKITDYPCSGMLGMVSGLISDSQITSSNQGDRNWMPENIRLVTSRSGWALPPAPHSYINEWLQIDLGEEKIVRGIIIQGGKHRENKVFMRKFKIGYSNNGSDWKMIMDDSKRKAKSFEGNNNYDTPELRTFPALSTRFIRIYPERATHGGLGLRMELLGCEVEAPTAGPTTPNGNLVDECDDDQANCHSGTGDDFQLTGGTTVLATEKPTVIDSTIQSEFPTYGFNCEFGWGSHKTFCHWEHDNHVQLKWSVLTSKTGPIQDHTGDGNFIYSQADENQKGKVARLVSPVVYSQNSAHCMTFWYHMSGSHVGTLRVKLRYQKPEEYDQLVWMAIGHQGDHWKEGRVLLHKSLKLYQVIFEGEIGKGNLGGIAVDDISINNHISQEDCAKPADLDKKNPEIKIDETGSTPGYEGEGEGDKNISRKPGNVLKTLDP

Kd: 1110 nM
B1: 1A03 anti-NRP1 IgG antibody (antibody, V domains shown)
VH: EVQLLESGGGLVQFGGSLRLSQAASGFTFSSYYMSWVRQAFGKGLEWVSAISFGSSNKYYADSVQGRFTISRDNSKNTLYLQMNELRAEDTAVYYCARRKKSFDYWGQGTLVTVSS
VL: QSVLTQFFSASGTPGQRVTISCSGFSSNIGNNDVSWYQQLFGTAPKLLIYSCNNRPSGVPDRFSGSKSGTSASLAISGLSSDEADYYCGAWVASLSAYVFGGGTKLTVTL

Kd: 426 nM
B2: IRCR-101 (3H10 converted into IgG format) (antibody, V domains shown)
VH: B1 VH with G15Q, G16Q, G26Q, F53P, Q65K, K101Y, S102M
VL: GSVLTQPPSASGTPGQRVTISCTGESSNIGNNDVYWYQQLPGTAFKLLIYSQSNRSGMPDRFSGSKSGTSASLAISGLRSEDEADYYCASWDSSLSGYVFGGGTKLTVTL

— patent US20190227052A1 (published 2019)
